Assay results as given in the Human Domainome abundance scans (Beltran et al. 2025).
± gives the uncertainty stated by the source.

B1: Neutrophil cytosol factor 2, residues 456 to 514; numbered along this chain, P19878 (parent)
chain: LKKGSQVEALFSYEATQPEDLEFQEGDIILVLSKVNEEWLEGECKGKVGIFPKVFVEDC

Variants of: B1
Experiment: abundance fitness (aPCA) (normalised: wild type 0, dead -1); higher = more abundant; growth selection in yeast, the domain comes from the species named
Settings: Homo sapiens

Abundance fitness, by site and new letter:
L40: I -0.183 ± 0.12, K -0.918 ± 0.33, R -0.217 ± 0.12, A -0.731 ± 0.18, P -0.02 ± 0.23, M -0.042 ± 0.19, E -0.742 ± 0.47, C -0.614 ± 0.17, T -0.749 ± 0.21, W -0.277 ± 0.2, V -0.451 ± 0.12, D -0.544 ± 0.17, Q -0.58 ± 0.4, Y 0.528 ± 0.077
G49: N -0.735 ± 0.15, F -0.469 ± 0.11, C -0.756 ± 0.17, E -0.63 ± 0.38, R -0.758 ± 0.2, L -0.42 ± 0.12, K 0.002 ± 0.19, Y -0.503 ± 0.12, W -0.137 ± 0.17, H -0.893 ± 0.28, P -0.722 ± 0.3, V -1.05 ± 0.18, I -0.427 ± 0.11, T -0.951 ± 0.25, D -0.478 ± 0.13, A -0.59 ± 0.18, M -0.075 ± 0.22
P52: D -0.479 ± 0.21, T -0.341 ± 0.14, W -0.953 ± 0.43, S -0.585 ± 0.13, Y -0.738 ± 0.21, I -0.766 ± 0.18, F -0.459 ± 0.18, M -0.253 ± 0.33, L -0.094 ± 0.12, E -0.642 ± 0.37, R -0.918 ± 0.21, G -0.215 ± 0.11, Q -0.645 ± 0.36, A -0.305 ± 0.13, K -0.559 ± 0.33, V -0.598 ± 0.14, C -0.51 ± 0.14
G42: F -0.509 ± 0.12, D -0.803 ± 0.17, K -0.768 ± 0.35, T -0.876 ± 0.24, A -0.146 ± 0.13, C -0.782 ± 0.15, V -0.748 ± 0.16, I -0.473 ± 0.15, Q -0.637 ± 0.28, N -0.484 ± 0.15, R -0.952 ± 0.19, E -0.237 ± 0.21, L -0.569 ± 0.14, M -0.954 ± 0.31, Y -0.466 ± 0.16, P -0.375 ± 0.18, W -0.322 ± 0.17
K53: E -0.353 ± 0.24, T -0.707 ± 0.24, H -0.928 ± 0.24, Y -0.722 ± 0.18, G 0.02 ± 0.1, A -0.246 ± 0.13, R 0.195 ± 0.1, P -0.716 ± 0.29, N -0.378 ± 0.15, C -0.848 ± 0.25, M -0.549 ± 0.39, F -0.857 ± 0.25, V -0.536 ± 0.15, L -0.749 ± 0.2, I -0.865 ± 0.21, D -0.61 ± 0.18, S -0.39 ± 0.12, W -0.808 ± 0.46
I50: K 0.108 ± 0.18, S -0.448 ± 0.14, V -0.298 ± 0.12, M -0.621 ± 0.31, G -0.347 ± 0.12, C -0.4 ± 0.15, E -0.58 ± 0.32, A -0.213 ± 0.17, F -0.389 ± 0.14, Q -0.659 ± 0.43, N -0.821 ± 0.22, H -0.371 ± 0.18, D -0.306 ± 0.16, R -0.125 ± 0.11, Y -0.208 ± 0.14, P 0.096 ± 0.24
G46: V -0.585 ± 0.15, L -0.226 ± 0.12, H -0.84 ± 0.34, A -0.313 ± 0.15, W -0.346 ± 0.21, Y -0.352 ± 0.14, P -0.747 ± 0.47, N 0.219 ± 0.11, R -0.392 ± 0.23, E -0.189 ± 0.28, D -0.703 ± 0.19, K -0.732 ± 0.42, T -0.904 ± 0.27, S -0.928 ± 0.18, M -0.599 ± 0.34, C -0.479 ± 0.2, I -0.615 ± 0.15
E37: D 0.069 ± 0.12, G -0.277 ± 0.12, W -0.279 ± 0.35, C -0.109 ± 0.15, Y -0.345 ± 0.34, P -0.903 ± 0.27, H -0.328 ± 0.14, R -0.22 ± 0.11, S -0.527 ± 0.12, I -0.445 ± 0.17, M -0.506 ± 0.22, A -0.42 ± 0.14, N 0.241 ± 0.13, L -0.645 ± 0.15, T -0.171 ± 0.14, V 0.085 ± 0.099, F -0.697 ± 0.2
K45: T -0.562 ± 0.19, S -0.691 ± 0.17, A -0.765 ± 0.19, R 0.012 ± 0.11, I -0.937 ± 0.18, Y -0.505 ± 0.16, C -0.191 ± 0.14, F -0.669 ± 0.15, W -0.125 ± 0.25, Q -0.577 ± 0.5, H 0.232 ± 0.12, G -0.61 ± 0.16, N 0.203 ± 0.096, D 0.065 ± 0.12, V -0.734 ± 0.17, P -0.904 ± 0.28, E -0.905 ± 0.49
E41: R 0.131 ± 0.083, G -0.157 ± 0.1, L 0.275 ± 0.083, C 0.14 ± 0.095, W -0.267 ± 0.23, A -0.394 ± 0.14, V -0.02 ± 0.091, M 0.275 ± 0.13, K 0.367 ± 0.1, I 0.175 ± 0.087, H -0.682 ± 0.27, T -0.527 ± 0.17, S -0.28 ± 0.1, N -0.635 ± 0.14, F 0.248 ± 0.083, Q 0.238 ± 0.3, Y 0.47 ± 0.079
